T1: DOR (Mus musculus), P32300
T1 chain: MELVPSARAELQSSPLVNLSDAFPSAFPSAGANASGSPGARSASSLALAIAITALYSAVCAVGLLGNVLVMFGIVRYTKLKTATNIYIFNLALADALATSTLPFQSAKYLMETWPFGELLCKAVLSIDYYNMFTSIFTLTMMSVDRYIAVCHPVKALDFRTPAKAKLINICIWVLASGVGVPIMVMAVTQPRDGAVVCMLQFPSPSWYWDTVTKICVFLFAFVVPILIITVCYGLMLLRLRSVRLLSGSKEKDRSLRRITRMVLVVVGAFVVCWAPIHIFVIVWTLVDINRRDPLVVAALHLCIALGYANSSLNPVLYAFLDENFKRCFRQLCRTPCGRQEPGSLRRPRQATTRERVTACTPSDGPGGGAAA

T2: 6TM/E11 6TM/E11 splice variant (Mus musculus), P42866
T2 chain: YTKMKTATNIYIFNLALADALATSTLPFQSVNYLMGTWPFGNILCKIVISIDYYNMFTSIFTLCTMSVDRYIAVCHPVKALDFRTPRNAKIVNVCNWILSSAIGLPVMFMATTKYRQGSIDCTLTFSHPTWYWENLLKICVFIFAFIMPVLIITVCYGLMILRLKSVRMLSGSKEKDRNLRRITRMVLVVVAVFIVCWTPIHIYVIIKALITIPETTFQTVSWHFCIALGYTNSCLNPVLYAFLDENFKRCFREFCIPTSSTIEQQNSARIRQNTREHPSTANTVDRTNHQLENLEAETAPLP

T3: KOR (Mus musculus), P33534
T3 chain: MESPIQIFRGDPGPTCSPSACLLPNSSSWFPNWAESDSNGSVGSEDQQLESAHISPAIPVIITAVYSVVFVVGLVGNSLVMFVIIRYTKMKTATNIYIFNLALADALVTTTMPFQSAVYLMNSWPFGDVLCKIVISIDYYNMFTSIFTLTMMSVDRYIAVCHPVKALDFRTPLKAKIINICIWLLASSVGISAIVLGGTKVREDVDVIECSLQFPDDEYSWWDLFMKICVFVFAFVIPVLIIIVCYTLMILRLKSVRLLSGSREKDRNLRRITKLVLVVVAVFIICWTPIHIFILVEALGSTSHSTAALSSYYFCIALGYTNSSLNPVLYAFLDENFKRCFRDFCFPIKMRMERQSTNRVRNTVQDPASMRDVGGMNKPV


Experiments:
Assay in all cases: radioligand
Conditions in all cases: modification not given
[1] = biological target: T1, DOR (Mus musculus), P32300
[2] = biological target: T2, 6TM/E11 6TM/E11 splice variant (Mus …)
[3] = biological target: T3, KOR (Mus musculus), P33534
[4] = biological target: MOR (Mus musculus), P42866
Chain of MOR (Mus musculus), P42866 (P42866 whole entry): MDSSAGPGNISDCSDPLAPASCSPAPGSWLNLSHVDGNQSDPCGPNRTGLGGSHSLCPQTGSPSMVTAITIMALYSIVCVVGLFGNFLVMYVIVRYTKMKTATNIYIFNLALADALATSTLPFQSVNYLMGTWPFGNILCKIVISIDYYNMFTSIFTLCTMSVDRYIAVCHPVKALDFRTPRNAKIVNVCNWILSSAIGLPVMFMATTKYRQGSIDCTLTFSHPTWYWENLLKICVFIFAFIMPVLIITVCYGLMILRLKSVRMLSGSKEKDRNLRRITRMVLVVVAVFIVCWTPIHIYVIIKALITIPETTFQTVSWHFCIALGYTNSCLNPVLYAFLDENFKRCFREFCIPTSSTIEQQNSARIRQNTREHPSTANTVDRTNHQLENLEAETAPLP

| Binder | Kd [1] [nM] | Ki [2] [nM] | Ki [3] [nM] | Ki [4] [nM] |
| --- | --- | --- | --- | --- |
| YAFEIIG [[125I]-3 (125I-GATE3-8)] | 0.11 |  |  |  |
| YAFEIIG [peptide 1] |  | > 1000 | > 1000 | > 1000 |
| YAFEVVG [[D-Ala2]deltorphin II] |  | > 1000 | > 1000 | > 1000 |
